Experimental data published in patent US7309578B2, “Therapeutic treatment of chronic obstructive pulmonary disease” (The Trustees of Columbia University in the City of New York, priority 2000, dated 2007).

What was measured:
[1] = test system: small airway epithelial cells, lung microvascular endothelial cells, lung fibroblasts; experiment: Transfection of lung cells with a sFrp1 expression vector, Annexin-V-Biotin assay; format: cell-based, human; conditions: for apoptosis-inducing activity on transfection: normal human primary lung epithelial, endothelial and fibroblast cells transfected with sFrp1-Gfp expression vector
From the text: (§1) Transfection of Lung Cells with a sFrp1 Expression Vector: The mouse sFrp1 full length cDNA was generously provided by Drs. Jeremy Nathans and Amir Rattner, John Hopkins University, Baltimore, and subcloned into a pCMS-EGFP vector (Clontech, Palo Alto, Calif.). A gene of sFrp1w&s inserted into the multiple cloning site at EcoRI and Sail sites between the cytomegalovirus early promoter and SV40 polyadenilation signals, which direct proper processing of the 3′ end of sFrp1 mRNA. The vector also has a Gfp (green fluorescent protein) gene located in downstream of the sFrp1-SV40 polyadenilation signals and ligated between the SV40 enhancer/promoter sequence and a polyadenylation signal from the bovine growth hormone gene. This vector construct allows transcriptions of sFrp1 and Gfp as separate proteins in transfected cells. Normal human primary cultured cells of small airway epithelial cells (SAEC 6043), lung microvascular endothelial cells (HMVEC L 6521-3), and lung fibroblasts (NHLF 5975) were obtained from BioWhittaker (Walkersville, Md.) and cultured in proper media containing 10% fetal bovine serum. Cells were plated 2 days before transfection in 4-well LabTek II chamber (Nalge Nunc International, Naperville, Ill.) at 2×10^4 cells/chamber and incubated at 37*C in 5% COj incubator. The sFrp1-Gjp expression vector or Gfp vector without sFrp gene (0.8 ujj) were transfected into cells using Lipofectaniine PLUS according to the manufacture's instruction (Gibco BRL). For Annexin-V-Biotin assay (Roche Diagnostics GmbH, Manheim, Germany), ceils were harvested at 72, 48, 24, 12 or 6 h after transfection and the reaction was detected by ExtraAvidin-Cy3 (Sigma). For caspase 3 activation assay, cells were fixed in 3% paraformaldehyde in PBS after 24 or 48 h of transfection and incubated with anti-human active caspase 3 antibody made by rabbit (x100, clone 9661. Cell Signaling Technology, Beverly, Mass.). Biotinylated goat IgG to rabbit IgG (Vector) and ExtraAvidin-Cy3 (Sigma) were used for detection of binding of a primary antibody.

[2] = test system: small airway epithelial cells, lung microvascular endothelial cells, lung fibroblasts; experiment: Transfection of lung cells with a sFrp1 expression vector, caspase 3 activation assay (immunostaining); format: cell-based, human; conditions: 24 or 48 h after transfection
From the text: as §1, with “Cells were plated 2 days before transfection in 4-well LabTek II chamber (Nalge Nunc International, Naperville, Ill.) at 2×10^4 cells/chamber and incubated at 37*C in 5% COj incubator. The sFrp1-Gjp expression vector or Gfp vector without sFrp gene (0.8 ujj) were transfected into cells using Lipofectaniine PLUS according to the manufacture's instruction (Gibco BRL).” left out, “For caspase 3 activation assay, cells were fixed in 3% paraformaldehyde in PBS after 24 or 48 h of transfection and incubated with anti-human active caspase 3 antibody made by rabbit (x100, clone 9661. Cell Signaling Technology, Beverly, Mass.). Biotinylated goat IgG to rabbit IgG (Vector) and ExtraAvidin-Cy3 (Sigma) were used for detection of binding of a primary antibody.” left out

B1: sFrp1: mouse secreted frizzled-related protein 1, expressed from full length cDNA in a pCMS-EGFP vector transfected into cells (protein, UniProt Q8C4U3 1-314, looked up)
chain: MGVGRSARGRGGAASGVLLALAAALLAAGSASEYDYVSFQSDIGSYQSGRFYTKPPQCVDIPVDLRLCHNVGYKKMVLPNLLEHETMAEVKQQASSWVPLLNKNCHMGTQVFLCSLFAPVCLDRPIYPCRWLCEAVRDSCEPVMQFFGFYWPEMLKCDKFPEGDVCIAMTPPNTTEASKPQGTTVCPPCDNELKSEAIIEHLCASEFALRMKIKEVKKENGDKKIVPKKKKPLKLGPIKKKELKRLVLFLKNGADCPCHQLDNLSHNFLIMGRKVKSQYLLTAIHKWDKKNKEFKNFMKRMKNHECPTFQSVFK
modifications: full-length
notes: mouse secreted frizzled-related protein 1, expressed from full length cDNA in a pCMS-EGFP vector transfected into cells
phosphatidylserine exposure to the outer cell membrane (annexin V assay) ([1]; 6-72 h after transfection, data not shown): time- and dose-dependency of cell death to sFrp1 expression
apoptosis-inducing activity on transfection [1]: apoptosis-inducing activity of sFrp1 without preference of cell-type examined
apoptosis-inducing activity on transfection ([1]; listed as sFRP-1): leads to apoptosis in lung epithelial cells, endothelial cells and fibroblasts
active caspase 3 immunostaining [2]: presence of acive caspase 3 in and surrounding cells transfected sFrp1
